According to paper PMC2796330:

Target: the unphosphorylated T-PY motif (Smad2 or Smad3 peptide)
Assay: ITC

fold lower affinity than for the pT-PY motif peptide: 7 to 15 fold
Substance: recombinant Nedd4L WW2 domain (domain or fragment)
